# Biological target: human platelet actin (non-muscle actin), used as monomeric ATP-G-actin or as pre-formed F-actin (human) (UniProt P60709)
# Test: co-sedimentation
Kd,percent remaining in supernatant (not pelleted with F-actin),Substance
21.9 nM,–,"FLAG-tagged SHTN1L lacking CCD-I (1L-ΔCCD-I), purified (domain or fragment)"
164 nM,50%,"FLAG-tagged SHTN1L, full length, purified (from UniProt Q8K2Q9 1-631) (natural protein)"
